According to US20110124010A1:

Assays:
[1] = molecular target: Myelin basic protein (MBP) (human) (UniProt P02686); assay: flow cytometry, intracellular staining of CD14+ macrophages from peripheral blood; isotype control background
[2] = molecular target: Myelin basic protein (MBP) (human) (UniProt P02686); assay: flow cytometry, intracellular staining of CD14+ macrophages from CSF; isotype control background

UniProt P02686, sequence (P02686 whole entry): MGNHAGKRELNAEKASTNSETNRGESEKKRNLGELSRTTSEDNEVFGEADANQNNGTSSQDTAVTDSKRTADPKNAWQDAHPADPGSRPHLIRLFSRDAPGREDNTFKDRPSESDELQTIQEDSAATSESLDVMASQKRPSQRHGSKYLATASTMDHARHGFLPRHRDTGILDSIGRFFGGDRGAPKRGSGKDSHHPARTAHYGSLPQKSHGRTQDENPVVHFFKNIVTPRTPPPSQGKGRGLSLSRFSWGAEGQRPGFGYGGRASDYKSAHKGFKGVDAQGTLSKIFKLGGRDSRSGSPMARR

Geometric Mean FI [1]: 766
Mean FI [1]: 783
Geometric Mean FI [2]: 292
Mean FI [2]: 328
Substance: Non-specific isotype specific antibody (Rabbit IgG) from Epitomics
